These results are taken from patent US20260056186A1 (JIANGSU HENGRUI PHARMACEUTICALS, published 2026).

Test [1] deals with T1, IFNAR1 (human, UniProt P17181 28-557).
T1 sequence (looked up): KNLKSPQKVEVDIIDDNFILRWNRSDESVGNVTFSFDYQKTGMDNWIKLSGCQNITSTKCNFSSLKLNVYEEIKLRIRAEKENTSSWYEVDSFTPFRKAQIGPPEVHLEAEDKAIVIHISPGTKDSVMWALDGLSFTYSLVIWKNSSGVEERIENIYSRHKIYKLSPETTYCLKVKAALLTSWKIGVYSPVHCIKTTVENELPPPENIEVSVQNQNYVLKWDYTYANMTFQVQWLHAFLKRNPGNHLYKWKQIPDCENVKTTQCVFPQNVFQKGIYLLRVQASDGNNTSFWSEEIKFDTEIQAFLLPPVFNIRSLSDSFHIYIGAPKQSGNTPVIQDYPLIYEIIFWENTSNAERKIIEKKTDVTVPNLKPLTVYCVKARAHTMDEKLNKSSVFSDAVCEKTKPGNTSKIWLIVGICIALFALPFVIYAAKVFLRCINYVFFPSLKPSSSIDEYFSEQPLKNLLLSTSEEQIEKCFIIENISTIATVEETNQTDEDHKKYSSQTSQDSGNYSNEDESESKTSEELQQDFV
In words: cell-based or functional assay.

The target in test [2] is T1, IFNAR1. In words: cell-based or functional assay. The source holds these as a separate data set.
In test [3] the target is T2, recombinant human BAFF (R&D cat: 7537-BF-025/CF) (human, UniProt Q9Y275 134-285). In words: cell-based or functional assay.
Test [4] has as its target T3, recombinant human APRIL (R&D cat: 5860-AP-010/CF) (human, UniProt O75888 105-250, limits assumed).
T3 sequence (looked up): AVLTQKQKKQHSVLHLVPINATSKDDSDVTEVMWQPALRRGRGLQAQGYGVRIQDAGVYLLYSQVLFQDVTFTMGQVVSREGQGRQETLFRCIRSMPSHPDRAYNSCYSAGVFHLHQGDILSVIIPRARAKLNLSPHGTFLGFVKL
Kind of test: cell-based or functional assay.

For test [5], the target named is T2, recombinant human BAFF (R&D cat: …). In words: cell-based or functional assay. The source holds these as a separate data set.
The target in test [6] is T3, recombinant human APRIL (R&D cat: …). Kind of test: cell-based or functional assay. This is another data set of the same source.
Test [7] deals with T4, APRIL (Acro Biosystems, Cat: APL-H52D1) (UniProt O75888 115-250, limits assumed).
T4 construct: also called ARPIL
T4 sequence (looked up): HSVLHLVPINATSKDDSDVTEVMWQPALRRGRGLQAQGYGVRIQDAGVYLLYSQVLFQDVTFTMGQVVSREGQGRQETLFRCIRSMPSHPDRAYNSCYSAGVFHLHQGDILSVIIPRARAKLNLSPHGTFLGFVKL
In words: ELISA, APRIL coated at 1 ug/mL, anti-human Fc-HRP, OD450. Here is the method:
The capabilities of fusion proteins B606401, B637302, B746201, and B805201 to bind to BAFF and APRIL were assessed by ELISA as follows:
BAFF (PeproTech, Cat: 310-13) or ARPIL (Acro Biosystems, Cat: APL-H52D1) was diluted to 1 μg/mL with PBS, and a 96-well plate was coated with the dilution overnight at 4° C. The plate was washed with PBST and blocked with Blocking Buffer (PBST containing 1% BSA) at 37° C. for 1 h. The plate was tapped. The test antibodies were diluted with Blocking Buffer. Incubation was performed at 37° C. for 1.5 h. The plate was washed with PBST. An HRP-mouse anti-human Fc antibody (GenScript, Cat: A01854-200) was diluted with Blocking Buffer. Incubation was performed at 37° C. for 40 min. The plate was washed with PBST. 100 μL of TMB substrate solution (Biopanda, Cat: TMB-S-003) was added, and color development was performed at 37° C. for 3 min. 100 μL of ELISA stop solution (Solarbio, Cat: C1058) was added. OD450 was measured.

T2 sequence (Q9Y275 134-285 limits assumed): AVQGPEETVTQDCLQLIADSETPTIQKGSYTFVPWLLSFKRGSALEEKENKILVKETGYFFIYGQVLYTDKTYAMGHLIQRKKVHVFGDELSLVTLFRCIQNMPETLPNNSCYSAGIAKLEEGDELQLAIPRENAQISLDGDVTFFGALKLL

B1: B637302 (other)
heavy: EVQLVQSGAEVKKPGESLKISCKGSGYIFTNYWIAWVRQMPGKGLESMGIIYPGDSDIRYSPSFQGQVTISADKSITTAYLQWSSLKASDTAMYYCARHDIEGFDYWGRGTLVTVSSASTKGPSVFPLAPSSKSTSGGTAALGCLVKDYFPEPVTVSWNSGALTSGVHTFPAVLQSSGLYSLSSVVTVPSSSLGTQTYICNVNHKPSNTKVDKRVEPKSCDKTHTCPPCPAPEFEGGPSVFLFPPKPKDTLMISRTPEVTCVVVDVSHEDPEVKFNWYVDGVEVHNAKTKPREEQYNSTYRVVSVLTVLHQDWLNGKEYKCKVSNKALPASIEKTISKAKGQPREPQVYTLPPSRDELTKNQVSLTCLVKGFYPSDIAVEWESNGQPENNYKTTPPVLDSDGSFFLYSKLTVDKSRWQQGNVFSCSVMHEALHNHYTQKSLSLSPGK
light: EIVLTQSPGTLSLSPGERATLSCRASQSVSSSFFAWYQQKPGQAPRLLIYGASSRATGIPDRLSGSGSGTDFTLTITRLEPEDFAVYYCQQYDSSAITFGQGTRLEIKRTVAAPSVFIFPPSDEQLKSGTASVVCLLNNFYPREAKVQWKVDNALQSGNSQESVTEQDSKDSTYSLSSTLTLSKADYEKHKVYACEVTHQGLSSPVTKSFNRGECGGGGSGGGGSMLQMAGQCSQNEYFDSLLHACIPCQLRCSSNTPPLTCQRYCSTSCREEQGEFYDHLLRDCISCASICGQHPKQCAAFCE
notes: Fusion protein of anifrolumab, TACI-19-16 and BCMA-ECD-2 (C-terminus of the light chain)
As to B1, the “IC50, inhibition of IFN-alpha-induced in vitro differentiation of B cells into plasma cells (CD27+ CD38+)” value with IFNAR1 [1] stood at 10.8 nM. Besides, in the test with IFNAR1 [2], the “IC50 (nM), inhibition of the activity of type I interferons (IFN-beta, HEK-Blue IFN-alpha/beta reporter cells)” value was determined as 1.59 nM. In addition, in test [3], the “Flow cytometry proliferating B cell proportion (%), mean value, BAFF-induced, drug at 10 nM (IgG1: 40.15)” value amounted to 23.8%; the “Flow cytometry proliferating B cell proportion (%), mean value, BAFF-induced, drug at 100 nM (IgG1: 40.60)” value was determined as 22.2%; the “Flow cytometry proliferating B cell proportion (%), mean value, BAFF-induced, drug at 1000 nM (IgG1: 33.97)” value came out at 10.9%. In test [4], the “Flow cytometry proliferating B cell proportion (%), mean value, APRIL-induced, drug at 4.12 nM (IgG1: 55.30)” value is 50.6%; the “Flow cytometry proliferating B cell proportion (%), mean value, APRIL-induced, drug at 12.35 nM (IgG1: 54.80)” value was 50.7%; the “Flow cytometry proliferating B cell proportion (%), mean value, APRIL-induced, drug at 37.04 nM (IgG1: 56.63)” value amounted to 53.6%; the “Flow cytometry proliferating B cell proportion (%), mean value, APRIL-induced, drug at 111.11 nM (IgG1: 55.83)” value was 51.5%. In test [4], the “Flow cytometry proliferating B cell proportion (%), mean value, APRIL-induced, drug at 333.33 nM (IgG1: 56.27)” value turned out to be 48% and the “Flow cytometry proliferating B cell proportion (%), mean value, APRIL-induced, drug at 1000.00 nM (IgG1: 53.27)” value was 33.6%. In addition, in test [5], the “CD27+ CD38+ plasma cell count, mean value, BAFF + APRIL-induced (both ligands together), drug at 100 nM (IgG1: 2496)” value (“CD27+ CD38+ plasma cell count … (IgG1: 2496)” for short) amounted to 482 cells and the “CD27+ CD38+ plasma cell count, mean value, BAFF + APRIL-induced (both ligands together), drug at 1000 nM (IgG1: 2279)” value (“CD27+ CD38+ plasma cell count … (IgG1: 2279)” below) was determined as 137 cells. In test [6], the “CD27+ CD38+ plasma cell count, mean value, BAFF + APRIL-induced (both ligands together), drug at 10 nM (IgG1: 2687)” value is 563 cells; the “CD27+ CD38+ plasma cell count … (IgG1: 2496)” value is 482 cells; the “CD27+ CD38+ plasma cell count … (IgG1: 2279)” value came to 137 cells. In test [7], this molecule had an EC50 of 0.0819 nM and an Emax of 2.9.

B2: B606401 (other)
heavy: EVQLVQSGAEVKKPGESLKISCKGSGYIFTNYWIAWVRQMPGKGLESMGIIYPGDSDIRYSPSFQGQVTISADKSITTAYLQWSSLKASDTAMYYCARHDIEGFDYWGRGTLVTVSSASTKGPSVFPLAPSSKSTSGGTAALGCLVKDYFPEPVTVSWNSGALTSGVHTFPAVLQSSGLYSLSSVVTVPSSSLGTQTYICNVNHKPSNTKVDKRVEPKSCDKTHTCPPCPAPEFEGGPSVFLFPPKPKDTLMISRTPEVTCVVVDVSHEDPEVKFNWYVDGVEVHNAKTKPREEQYNSTYRVVSVLTVLHQDWLNGKEYKCKVSNKALPASIEKTISKAKGQPREPQVYTLPPSRDELTKNQVSLTCLVKGFYPSDIAVEWESNGQPENNYKTTPPVLDSDGSFFLYSKLTVDKSRWQQGNVFSCSVMHEALHNHYTQKSLSLSPGK
light: EIVLTQSPGTLSLSPGERATLSCRASQSVSSSFFAWYQQKPGQAPRLLIYGASSRATGIPDRLSGSGSGTDFTLTITRLEPEDFAVYYCQQYDSSAITFGQGTRLEIKRTVAAPSVFIFPPSDEQLKSGTASVVCLLNNFYPREAKVQWKVDNALQSGNSQESVTEQDSKDSTYSLSSTLTLSKADYEKHKVYACEVTHQGLSSPVTKSFNRGECGGGGSGGGGSSTSCREEQGEFYDHLLRDCISCASICGQHPKQCAAFCE
notes: Fusion protein of anifrolumab and TACI-19-16 (C-terminus of the light chain)
Regarding B2, the “IC50, inhibition of IFN-alpha-induced in vitro differentiation of B cells into plasma cells (CD27+ CD38+)” value with IFNAR1 [1] stood at 17.4 nM. The “IC50 (nM), inhibition of the activity of type I interferons (IFN-beta, HEK-Blue IFN-alpha/beta reporter cells)” value with IFNAR1 [2] is 1.94 nM. For the same molecule, in test [3], the “Flow cytometry proliferating B cell proportion (%), mean value, BAFF-induced, drug at 10 nM (IgG1: 40.15)” value is 28.1%; the “Flow cytometry proliferating B cell proportion (%), mean value, BAFF-induced, drug at 100 nM (IgG1: 40.60)” value was determined as 25.3%; the “Flow cytometry proliferating B cell proportion (%), mean value, BAFF-induced, drug at 1000 nM (IgG1: 33.97)” value amounted to 17.9%. In test [4], the “Flow cytometry proliferating B cell proportion (%), mean value, APRIL-induced, drug at 4.12 nM (IgG1: 55.30)” value was found to be 52%; the “Flow cytometry proliferating B cell proportion (%), mean value, APRIL-induced, drug at 12.35 nM (IgG1: 54.80)” value was determined as 52.9%; the “Flow cytometry proliferating B cell proportion (%), mean value, APRIL-induced, drug at 37.04 nM (IgG1: 56.63)” value was 53.6%; the “Flow cytometry proliferating B cell proportion (%), mean value, APRIL-induced, drug at 111.11 nM (IgG1: 55.83)” value worked out at 53.1%. For the same molecule, in test [4], the “Flow cytometry proliferating B cell proportion (%), mean value, APRIL-induced, drug at 333.33 nM (IgG1: 56.27)” value worked out at 50.6% and the “Flow cytometry proliferating B cell proportion (%), mean value, APRIL-induced, drug at 1000.00 nM (IgG1: 53.27)” value turned out to be 40.3%. Further, in test [5], the “CD27+ CD38+ plasma cell count … (IgG1: 2496)” value amounted to 549 cells and the “CD27+ CD38+ plasma cell count … (IgG1: 2279)” value worked out at 426 cells. Moreover, in test [6], the “CD27+ CD38+ plasma cell count, mean value, BAFF + APRIL-induced (both ligands together), drug at 10 nM (IgG1: 2687)” value came to 654 cells; the “CD27+ CD38+ plasma cell count … (IgG1: 2496)” value was determined as 549 cells; the “CD27+ CD38+ plasma cell count … (IgG1: 2279)” value is 426 cells. Also, in test [7], it took 0.607 nM to reach a half-maximal effect (EC50) and the Emax was determined as 2.81.

As a reminder, the EC50 is the concentration at which the effect is half-maximal. A lower EC50 goes with higher potency in that assay.
